Experiment [1] addresses T1, recombinant cynomolgus monkey PD-1 expressed with a C-terminal myc-myc-hexahistidine tag (cynomolgus monkey (Macaca fascicularis)).
T1 construct: Monomeric reagent; also called MfPD-1-MMH
T1 chain: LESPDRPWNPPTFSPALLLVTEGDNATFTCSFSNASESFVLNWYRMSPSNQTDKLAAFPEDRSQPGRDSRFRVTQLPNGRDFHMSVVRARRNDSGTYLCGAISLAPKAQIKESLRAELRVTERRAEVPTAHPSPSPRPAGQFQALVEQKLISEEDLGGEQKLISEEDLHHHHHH
The experiment can be described thus: SPR (Biacore), MfPD-1-MMH, 37 C; end of range tied to H4xH9045P by Table 9.

The target of experiment [2] is T2, recombinant human PD-1 expressed with a C-terminal myc-myc-hexahistidine tag (human).
T2 construct: also called hPD-1-MMH; human PD-1-MMH
Briefly: SPR (Biacore), mAb captured, hPD-1-MMH injected, 25 C.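 Also: rate constants obtained by fitting sensorgrams to a 1:1 binding model, KD derived as kd/ka and half-life as ln2/(60·kd) in minutes.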

Experiment [3] concerns the target T3, human PD-1 dimer (human PD-1-mFc or human PD-1-hFc) (human, UniProt Q15116 25-170).
T3 construct: also called hPD-1 dimer proteins
The experiment can be described thus: SPR (Biacore), hPD-1 dimer (mFc or hFc), 25 C; end of range tied to H2aM7798N by Table 6.

In experiment [4] the target is T2, recombinant human PD-1 expressed with a …. The experiment can be described thus: SPR (Biacore), hPD-1-MMH, 37 C; end of range tied to H2aM7798N by Table 5.
Experiment [5] deals with T1, recombinant cynomolgus monkey PD-1 …. The experiment can be described thus: SPR (Biacore), MfPD-1-MMH, 37 C; end of range tied to H2aM7798N by Table 9.
The target in experiment [6] is T4, recombinant human PD-1 dimer expressed with a C-terminal mouse IgG2a Fc tag (human).
T4 construct: also called hPD-1-mFc; human PD-1-mFc
Briefly: competition ELISA: blocking 100 pM hPD-1-mFc binding to coated hPD-L2-hFc; end tied to H2aM7798N by Table 14.

Experiment [7] has as its target PD-1 chimera: extracellular domain of human PD-1 with trans-membrane and cytoplasmic domains of human CD300a, … (human, UniProt Q9UGN4 181-299, limits assumed). Briefly: cell-based or functional assay.
For experiment [8], the target named is T1, recombinant cynomolgus monkey PD-1 …. Briefly: SPR (Biacore), MfPD-1-MMH, 25 C; end of range tied to H4xH8999P by Table 8.
Experiment [9] concerns the target T5, dimeric biotinylated human PD-1 protein, human PD-1 extracellular domain with a C-terminal human Fc tag (human, biotinylated (sites not given)).
T5 construct: also called biot-hPD-1-hFc
Briefly: competition ELISA: blocking 200 pM biot-hPD-1-hFc binding to coated hPD-L1-mFc; end tied to H1M7799N by Table 13 (below theoretical bottom 100 pM).

Experiment [10] addresses T6, full length human PD-1 on HEK293 cells (HEK293/hPD-1) (human, UniProt Q15116 25-288).
T6 construct: also called human PD-1 expressing cells
The experiment can be described thus: FACS, dose titration on HEK293/hPD-1 cells; end tied to H1M7799N by Table 20.

Experiment [11] deals with T4, recombinant human PD-1 dimer expressed …. Briefly: competition ELISA: blocking 1.5 nM hPD-1-mFc binding to coated hPD-L1-hFc; end tied to H4xH9048P2 by Table 12.
Experiment [12] deals with T1, recombinant cynomolgus monkey PD-1 …. The experiment can be described thus: SPR (Biacore), MfPD-1-MMH, 25 C; end of range tied to H4H9057P2 by Table 8.
For experiment [13], the target named is T4, recombinant human PD-1 dimer expressed …. The experiment can be described thus: competition ELISA: blocking 1.5 nM hPD-1-mFc binding to coated hPD-L1-hFc; end tied to H4H9057P2 by Table 12 (below theoretical bottom 0.75 nM).
Experiment [14] concerns the target T7, recombinant human PD-1 dimer expressed with a C-terminal mouse IgG2a Fc tag (human).
T7 construct: also called hPD-1-mFc
The experiment can be described thus: competition ELISA: 100 pM hPD-1-mFc to coated hPD-L2-hFc.

Experiment [15] has as its target T8, monkey PD-1 with mFc (monkey).
T8 construct: also called monkey PD-1-mFc; monkey PD-1 dimer
T8 chain: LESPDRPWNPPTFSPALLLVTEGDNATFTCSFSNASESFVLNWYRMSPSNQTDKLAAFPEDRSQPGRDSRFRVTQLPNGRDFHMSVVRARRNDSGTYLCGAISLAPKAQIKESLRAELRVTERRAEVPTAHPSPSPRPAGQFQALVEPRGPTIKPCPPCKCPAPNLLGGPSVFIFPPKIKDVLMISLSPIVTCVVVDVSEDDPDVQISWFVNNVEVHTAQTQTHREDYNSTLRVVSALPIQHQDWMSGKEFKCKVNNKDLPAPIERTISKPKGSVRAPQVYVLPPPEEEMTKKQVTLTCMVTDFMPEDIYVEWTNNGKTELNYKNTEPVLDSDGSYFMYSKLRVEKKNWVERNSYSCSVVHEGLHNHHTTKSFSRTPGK
Briefly: SPR, captured mAb, 37 C.

Experiment [16] deals with T9, recombinant human PD-L1 expressed with a C-terminal mouse IgG2a Fc tag (human).
T9 construct: also called hPD-L1-mFc; hPD-L1.mFc
Briefly: SPR Biacore 3000: 500 nM mAb alone (no hPD-1.hFc) over captured hPD-L1.mFc surface, control.

Experiment [17] addresses full length human PD-1 on HEK293/hPD-1 cells (human, UniProt Q15116 25-288). Briefly: FACS, 100 nM mAb, HEK293/hPD-1 cells.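 Also: antibodies incubated with cells for 15-30 min on ice, bound antibody detected through a secondary F(ab′)2 by flow cytometry, with parental HEK293 cells tested in parallel.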
The target in experiment [18] is T10, recombinant human PD-1 expressed with a C-terminal human IgG1 Fc tag (human).
T10 construct: also called hPD-1-hFc; hPD1-hFc
The experiment can be described thus: SPR Biacore 3000: 100 nM hPD-1.hFc + 500 nM mAb to captured hPD-L1.mFc.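 Also: inhibition study with anti-PD-1 mAbs, SPR responses tracked in real time and read at the close of each step.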

Experiment [19] addresses T8, monkey PD-1 with mFc. The experiment can be described thus: SPR, captured mAb, 37 C; no dissociation observed, kd fixed at 1.00E-05.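 Also: Real-time Biacore surface plasmon resonance biosensor readout of PD-1 reagent binding to purified anti-PD-1 monoclonal antibodies.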
Experiment [20] concerns the target T8, monkey PD-1 with mFc. The experiment can be described thus: SPR, captured mAb, 25 C.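 Also: purified anti-PD-1 antibodies tested on Biacore 4000 or T200 instruments, rate constants obtained via 1:1 binding model fit, with KD as kd/ka and half-life as ln2/(60·kd).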
Experiment [21] deals with T7, recombinant human PD-1 dimer expressed …. Briefly: competition ELISA: 1.5 nM hPD-1-mFc to coated hPD-L1-hFc.
The target of experiment [22] is T11, monkey PD-1 with mFc (monkey (MfPD-1)).
T11 construct: also called monkey PD-1-mFc; monkey PD-1 dimer
T11 chain: T8 chain
Briefly: SPR (Biacore), monkey PD-1-mFc, 37 C; end of range tied to H4xH9008P by Table 11 (kd fixed at 1.00E-05).

Experiment [23] deals with T11, monkey PD-1 with mFc. The experiment can be described thus: SPR (Biacore), monkey PD-1-mFc, 25 C; end of range tied to H4H9068P2 by Table 10.
Experiment [24] deals with T11, monkey PD-1 with mFc. The experiment can be described thus: SPR (Biacore), monkey PD-1-mFc, 37 C; end of range tied to H4H9068P2 by Table 11.

B1: H4xH9045P (antibody, human IgG4, V domains shown)
VH: EVQLVESGGGLVQPGRSLRLSCAASGFTFDDYDMHWVRQAPGKGLEWVSGSGWNRGSLGYADSVKGRFTISRDNAKKSLYLQMNSVRVEDTALYYCAKGFVVVSAAYFDYWGQGTLVTVSS
VL: not shown
notes: H4xH: modified human IgG4 Fc; also called H4xH9045P2
Turning to B1, the Kd in [1] was 7540 nM. In addition, in experiment [2], the Kd worked out at 74.6 nM, the koff worked out at 0.00403 s⁻¹, the kon was 54000 M⁻¹ s⁻¹ and the t½ worked out at 2.9 min.

B2: H2aM7798N (antibody, mouse IgG2a, V domains shown)
VH: EVQLLESGGVLVQPGGSLRLSCAASGFTFSNFGMTWVRQAPGKGLEWVSGISGGGRDTYFADSVKGRFTISRDNSKNTLYLQMNSLKGEDTAVYYCVKWGNIYFDYWGQGTLVTVSS
VL: DIQMTQSPSSLSASVGDSITITCRASLSINTFLNWYQQKPGKAPNLLIYAASSLHGGVPSRFSGSGSGTDFTLTIRTLQPEDFATYYCQQSSNTPFTFGPGTVVDFR
notes: Human variable domains, mouse IgG2a Fc; also called H2M7798N
For B2, the Kd in [3] was 0.0655 nM. Moreover, the dissociation constant Kd in [4] turned out to be 3.79 nM. For the same molecule, the Kd in [5] stood at 7 nM. The IC50 in experiment [6] was found to be 0.13 nM. Further, the “Emax, AP1-Luc signal at 100 nM antibody (% of signal without anti-PD-1 antibody)” value in [7] worked out at 239%. In experiment [2], the Kd came out at 2.31 nM, the koff was 0.000306 s⁻¹, the kon was 132000 M⁻¹ s⁻¹ and the t½ was 38 min.

B3: H4xH8999P (antibody, human IgG4, V domains shown)
VH: QLQLQESGPGLVQPSETLSLTCTVSGDSISSTAYHWDWIRQPPGKGLEWIGTITYNGNTYFNPSLKSRVTISVDTSKNQFSLKLLSMTAAETAVFYCARHLGYNSDFFPFDFWGQGTLVTVSS
VL: not shown
notes: H4xH: modified human IgG4 Fc
As to B3, the dissociation constant Kd in [8] was 3.09 nM. Further, in [2], the dissociation constant Kd stood at 4.33 nM and the t½ amounted to 9.4 min.

B4: H1M7799N (antibody, mouse IgG1, V domains shown)
VH: EVQLVESGGGLVQPGGSLRLSCAASGFTVSNNYMSWVRQAPGKGLEWVSVIYSGGFTYYTDSVKGRFTISRHNSKNTLYLQMNSLRAEDTAVYYCARYYYDTSDYWTFFDYWGQGTLVTVSS
VL: EIVMTQSPATLSVSPGERATLSCRASQSVSSNLAWYQQKPGQAPRLLIYGASTRATGIPARFSGSGSGTEFTLTISSLQSGDFAVYYCQQYNNWPLTFGGGTKVEIN
notes: Human variable domains, mouse IgG1 Fc
Molecule B4 returned an IC50 in experiment [9] of 0.059 nM. In experiment [10], this molecule registered a 50% effective concentration (EC50) of 0.0332 nM. In experiment [2], the dissociation constant (Kd) amounted to 244 nM, the dissociation rate constant (koff) was determined as 0.0123 s⁻¹, the kon was found to be 50400 M⁻¹ s⁻¹ and the t½ was 0.9 min.

B5: H4xH9048P2 (antibody, human IgG4, V domains shown)
VH: QVQLVQSGAEVKRPGSSVKVSCKVSGVTFRNFAIIWVRQAPGQGLEWMGGIIPFFSAANYAQSFQGRVTITPDESTSTAFMELASLRSEDTAVYYCAREGERGHTYGFDYWGQGTLVTVSS
VL: not shown
notes: H4xH: modified human IgG4 Fc
Consider B5, for which, in [11], the concentration for half-maximal inhibition (IC50) is 3.3 nM. In addition, in experiment [2], the Kd was found to be 8.95 nM, the off-rate (koff) came to 0.00123 s⁻¹, the association rate constant (kon) was 137000 M⁻¹ s⁻¹ and the t½ was found to be 9.4 min.

B6: H4H9057P2 (antibody, human IgG4, V domains shown)
VH: EVQLVESGGGLVQSGRSLRLSCAASGFTFDDYAMHWVRQPPGKGLEWVSGINWNRGRTGYADSVKGRFTISRDNAKNSLYLQMNDLRVEDTALYYCAKAEQWLDEGYFDYWGQGTLVTVSS
VL: not shown
notes: Human IgG4 Fc (H4H prefix)
B6: the Kd in experiment [12] is 551 nM. Also, the IC50 in experiment [13] was 0.19 nM. For the same molecule, in experiment [2], the Kd is 291 nM, the koff was 0.0134 s⁻¹, the association rate constant (kon) was determined as 46000 M⁻¹ s⁻¹ and the t½ is 0.9 min.

B7: H4xH9008P (antibody, V domains shown)
VH: EVQLVESGGGLVRPGGSLRLSCAASGFTFSTYAMAWVRQTPGKGLEGVSAIGGSGDSTYYVDSVKGRFTISRDNSKSTLFLQMNSLRAEDTAVYYCVKVRNYDGSFDIWGQGTMVTVSS
VL: not shown
notes: human IgG4 Fc with 2 or more amino acid changes (US20100331527)
Regarding B7, the “% blocking at 100 nM antibody” value in [14] was 94%. In the experiment with monkey PD-1 with mFc [15], the “100 nM Monkey PD-1-mFc Bound (RU)” value came out at 98 RU. Besides, the “500 nM of anti-PD-1 monoclonal antibody (RU)” value in experiment [16] stood at 0 RU. The same molecule showed an MFI in experiment [17] of 26200 MFI. In addition, in [18], the “binding of the mixture (RU)” value worked out at 1 RU. In the experiment with monkey PD-1 with mFc [19], this molecule showed a Kd of no more than 0.049 nM and a t1/2 of no less than 1160 min. In the experiment with monkey PD-1 with mFc [20], this molecule displayed a Kd of 0.48 nM and a t1/2 of 200 min. In addition, in experiment [21], the “% blocking at 200 nM antibody” value is 88% and the IC50 is 2.4 nM.

B8: H4xH9008P (antibody, human IgG4, V domains shown)
VH: B7 VH
VL: not shown
notes: H4xH: modified human IgG4 Fc
B8: the Kd with monkey PD-1 with mFc [22] is less than 0.049 nM. For the same molecule, in experiment [2], the dissociation constant Kd worked out at 31 nM and the t½ is 8.7 min.

B9: H4H9068P2 (antibody, human IgG4, V domains shown)
VH: EVQLVESGGGLVQRGGSLRLSCAASGFSFSSYAMNWVRQAPGKGLEWVSTISDSGGSTYYADSVKGRFTISRDNSKNTLSLQMNSLRAEDTAVYYCAKDQGGSYPYYFHYWGQGTLVTVSS
VL: not shown
notes: Human IgG4 Fc (H4H prefix)
Regarding B9, the dissociation constant Kd stood at 54.2 nM with monkey PD-1 with mFc [23] and 86.3 nM with monkey PD-1 with mFc [24].
